According to patent US20190094207A1 (JAPANESE FOUNDATION FOR CANCER RESEARCH, published 2019):

Experiments:
[1] = biological target: INCENP (Inner Centromere Protein), endogenous, as part of the chromosomal passenger complex (CPC) (human, UniProt Q9NQS7 1-918); assay: INCENP immunoprecipitated from mitotic HeLa cell extract; amount of coprecipitated protein (INCENP in the same precipitate: 1280 pmol)
Experimental: The cells in the mitotic phase were incubated in a solution, which was prepared by adding 1 U/μl OmniCleave Endonuclease (manufactured by Epicentre) in the above immunoprecipitation buffer, at 4° C. for 30 minutes. The solution was centrifuged at 4° C. and 15,000 rpm for 10 minutes and the supernatant was further centrifuged. The resultant supernatant was used for immunoprecipitation. Protein A-Sepharose (manufactured by Bio-Rad) having an antibody bound thereto, was allowed to react with cell extracts and subjected to immunoprecipitation. […]
Next, whether or not binding to INCENP differs among the subtypes of HP1 was analyzed (FIG. 1B). […] Mitotic HeLa cell extracts were subjected to immunoprecipitation with an INCENP antibody or control IgG and then analyzed by immunoblotting using antibodies against INCENP, Aurora B (clone 6, manufactured by BD Bioscience) and Survivin (71G4B7E, manufactured by Cell Signaling Technology) constituting CPC; an HP1α antibody (clone 15.19s2, manufactured by Millipore), an HP1β antibody (clone 1MOD-1A9, manufactured by Millipore) and an HP1 γ antibody (clone 2MOD-1G6, manufactured by Millipore).
Quantitative analysis was carried out using purified recombinant HP1-subtype proteins.

GST-Aurora B = biological target: T1, GST-Aurora B (UniProt Q96GD4 1-344, limits assumed); assay: GST pull down with recombinant full-length INCENP + GST-Aurora B, without HP1α, with HP1α WT or with I165E; immunoblot and bar chart of Hec1 binding
T1 construct: not shown: GST
Experimental: Then, enzyme kinetics analysis of Aurora B was carried out. […] Further, analysis of proteins binding to GST-Aurora B was carried out by the GST pull down assay. As a result, the amount of Hec1 binding to GST-Aurora B increased in the conditions where HP1 can bind to INCENP. […] Accordingly, binding of HP1α to INCENP is required for activating Aurora B.

[2] = biological target: T2, Wild type HP1α (His tag or GST tag attached) (UniProt P45973 1-191); assay: isothermal titration calorimetry, average of 5 experiments
T2 construct: also called heterochromatin protein 1; not shown: His tag or GST tag
Experimental: (§1) Wild type HP1α and a region at positions 121 to 270 in INCENP (SEQ ID NO: 8, INCENP WT) were used in the binding assay. The region at positions 121 to 270 in INCENP contains an important motif […], required for binding to HP1. A mutant (SEQ ID NO: 9, INCENP 3A) was obtained by substituting three amino acids in this region with alanine residues and used as a control. A dissociation constant thereof was determined by isothermal titration calorimetry. As an isothermal titration calorimetry apparatus, any device may be used. For example, using MicroCal iTC2000 system (manufactured by GE healthcare biosciences), measurement may be carried out, in accordance with a conventional method.
(§2) The above peptides, to which His tag or GST tag was attached, were subjected to isothermal titration calorimetry to determine a dissociation constant. Note that, the dissociation constant was computationally obtained based on average values of 5 experiments.

[3] = biological target: T2, Wild type HP1α (His tag or GST tag …); assay: isothermal titration calorimetry
Experimental: as §1, §2

[4] = biological target: T2, Wild type HP1α (His tag or GST tag …); assay: alpha assay with acceptor and donor beads capturing His tag or GST tag
Experimental: If a candidate compound is added in the binding assay system, a compound influencing the binding of INCENP and HP1 can be screened. Further, a system for analyzing the binding of HP1 and INCENP based on an alpha assay, which is more sensitive and easier in operation, was constructed. The interaction between HP1α and INCENP was determined by using acceptor beads or donor beads that can capture His tag or GST tag and detecting fluorescent signal in accordance with a conventional method. As a result of that His tag or GST tag was attached to HP1α and a region at positions 160 to 210 in INCENP (SEQ ID NO: 10) and the aforementioned alpha assay using acceptor beads and donor beads was carried out, a binding can be sensitively detected. Accordingly, owing to HTS using the binding assay or alpha assay, compounds influencing the binding of HP1 and INCENP can be screened.

T2 sequence (P45973 whole entry): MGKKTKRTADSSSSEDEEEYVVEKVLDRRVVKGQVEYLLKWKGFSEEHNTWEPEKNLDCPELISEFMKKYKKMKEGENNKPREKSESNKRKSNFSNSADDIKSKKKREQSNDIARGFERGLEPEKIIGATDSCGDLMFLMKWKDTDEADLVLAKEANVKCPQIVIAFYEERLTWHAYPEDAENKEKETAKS
INCENP (Inner Centromere Protein), endogenous, as part of the chromosomal passenger complex (CPC), sequence (Q9NQS7 whole entry, one chain of several): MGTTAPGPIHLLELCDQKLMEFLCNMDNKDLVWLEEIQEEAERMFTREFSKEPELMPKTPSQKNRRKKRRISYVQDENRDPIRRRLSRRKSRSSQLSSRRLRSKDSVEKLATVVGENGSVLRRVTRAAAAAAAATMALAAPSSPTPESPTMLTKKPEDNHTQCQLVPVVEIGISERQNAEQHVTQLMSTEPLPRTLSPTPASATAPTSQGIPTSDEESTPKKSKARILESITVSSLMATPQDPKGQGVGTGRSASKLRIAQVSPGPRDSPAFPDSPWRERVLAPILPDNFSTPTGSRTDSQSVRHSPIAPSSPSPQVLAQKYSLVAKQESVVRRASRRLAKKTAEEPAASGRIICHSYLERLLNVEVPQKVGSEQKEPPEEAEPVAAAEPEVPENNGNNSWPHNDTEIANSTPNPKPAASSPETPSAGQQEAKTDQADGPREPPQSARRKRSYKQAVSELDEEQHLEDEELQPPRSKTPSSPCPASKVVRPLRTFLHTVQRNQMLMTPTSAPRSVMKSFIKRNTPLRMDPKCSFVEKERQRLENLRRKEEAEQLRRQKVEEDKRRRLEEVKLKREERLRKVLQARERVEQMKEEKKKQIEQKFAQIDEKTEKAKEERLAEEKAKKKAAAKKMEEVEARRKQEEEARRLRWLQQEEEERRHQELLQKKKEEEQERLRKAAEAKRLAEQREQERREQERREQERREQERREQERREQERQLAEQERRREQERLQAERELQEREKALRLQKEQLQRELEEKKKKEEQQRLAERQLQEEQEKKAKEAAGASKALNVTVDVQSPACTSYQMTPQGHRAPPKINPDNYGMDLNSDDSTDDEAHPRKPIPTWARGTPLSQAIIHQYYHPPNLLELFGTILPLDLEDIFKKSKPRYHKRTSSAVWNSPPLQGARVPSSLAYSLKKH

B1: Aurora B (endogenous) (enzyme, human, UniProt Q96GD4 1-344, looked up)
chain: MAQKENSYPWPYGRQTAPSGLSTLPQRVLRKEPVTPSALVLMSRSNVQPTAAPGQKVMENSSGTPDILTRHFTIDDFEIGRPLGKGKFGNVYLAREKKSHFIVALKVLFKSQIEKEGVEHQLRREIEIQAHLHHPNILRLYNYFYDRRRIYLILEYAPRGELYKELQKSCTFDEQRTATIMEELADALMYCHGKKVIHRDIKPENLLLGLKGELKIADFGWSVHAPSLRRKTMCGTLDYLPPEMIEGRMHNEKVDLWCIGVLCYELLVGNPPFESASHNETYRRIVKVDLKFPASVPMGAQDLISKLLRHNPSERLPLAQVSAHPWVRANSRRVLPPSALQSVA
Amount [1]: 1110 pmol

B2: Hec1 (other, UniProt O14777 1-80, looked up)
chain: MKRSSVSSGGAGRLSMQELRSQDVNKQGLYTPQTKEKPTFGKLSINKPTSERKVSLFGKRTSGHGSRNSQLGIFSSSEKI
notes: also called Aurora B substrate
binding result (GST-Aurora B): binds

B3: INCENP WT (region at positions 121 to 270 in INCENP) (peptide)
chain: LRRVTRAAAAAAAATMALAAPSSPTPESPTMLTKKPEDNHTQCQLVPVVEIGISERQNAEQHVTQLMSTEPLPRTLSPTPASATAPTSQGIPTSDEESTPKKSKARILESITVSSLMATPQDPKGQGVGTGRSASKLRIAQVSPGPRDSP
notes: also called INCENP 121-270; not shown: His tag or GST tag
Kd [2]: 102 nM

B4: INCENP 3A (region 121 to 270 of INCENP with three amino acids substituted with alanine) (peptide)
chain: LRRVTRAAAAAAAATMALAAPSSPTPESPTMLTKKPEDNHTQCQLVAVAEAGISERQNAEQHVTQLMSTEPLPRTLSPTPASATAPTSQGIPTSDEESTPKKSKARILESITVSSLMATPQDPKGQGVGTGRSASKLRIAQVSPGPRDSP
notes: also called INCENP 3A mutant; not shown: His tag or GST tag
binding result [3]: no binding

B5: Region at positions 160 to 210 in INCENP (peptide)
chain: TQCQLVPVVEIGISERQNAEQHVTQLMSTEPLPRTLSPTPASATAPTSQG
notes: Used in the alpha assay with HP1α; also called INCENP 160-210; not shown: His tag or GST tag
binding result [4]: binds
